In patent US20240132578A1:

Tests used:
Assay in all cases: cell-based or functional assay
[1] = molecular target: HIV-1 Env of pseudovirus MGRM-F1-021 (clade F) (HIV-1)
[2] = molecular target: HIV-1 envelope glycoprotein (Env) of isolate MGRM-C-025 (HIV-1)
[3] = molecular target: HIV-1 envelope glycoprotein (Env) of isolate MGRM-C-022 (HIV-1)
[4] = molecular target: HIV-1 Env of isolate APV_6, clade B (HIV-1)
[5] = molecular target: HIV-1 Env of isolate MGRM-Chronic-B-004, clade B (HIV-1)
[6] = molecular target: HIV-1 envelope glycoprotein (Env) of isolate MGRM-C-020 (HIV-1)
[7] = molecular target: HIV-1 92UG005 envelope (Env) on pseudovirus (HIV-1)
[8] = molecular target: HIV-1 envelope glycoprotein (Env) of isolate MGRM-C-001 (HIV-1)
[9] = molecular target: HIV-1 Env of isolate MGRM-D-002 (clade D pseudovirus) (HIV-1)
[10] = molecular target: HIV-1 Env of pseudovirus MGRM-G-011 (HIV-1)
[11] = molecular target: HIV-1 APV-13 envelope (Env) on pseudovirus (HIV-1)
[12] = molecular target: HIV-1 Env of pseudovirus MGRM-G-025 (HIV-1)
[13] = molecular target: HIV-1 MGRM-AG-011 Env (pseudovirus) (HIV-1)
[14] = molecular target: HIV-1 92RW021 envelope glycoprotein (Env) on pseudovirus (HIV-1 (clade A))
[15] = molecular target: HIV-1 Env of isolate 92RW008 (clade A pseudovirus) (HIV-1)
[16] = molecular target: HIV-1 Env of pseudovirus MGRM-G-014 (HIV-1)
[17] = molecular target: HIV-1 Env of isolate 92UG005 (clade D pseudovirus) (HIV-1)
[18] = molecular target: HIV-1 Env of isolate MGRM-D-022 (clade D pseudovirus) (HIV-1)
[19] = molecular target: HIV-1 Env of isolate APV_13, clade B (HIV-1)
[20] = molecular target: HIV-1 Env of isolate 92BR020, clade B (HIV-1)
[21] = molecular target: HIV-1 Env of isolate 92RW008 (subtype A) (HIV-1)
[22] = molecular target: HIV-1 Env of pseudovirus MGRM-F1-022 (HIV-1)
[23] = molecular target: HIV-1 envelope glycoprotein (Env) of isolate MG RM-AG-002 (HIV-1)
[24] = molecular target: HIV-1 Env of isolate MGRM-C-026 (subtype C), on pseudovirus (HIV-1)
[25] = molecular target: HIV-1 Env of isolate 92UG114 (HIV-1)
[26] = molecular target: HIV-1 Env of pseudovirus isolate 92BR020 (clade B) (HIV-1)
[27] = molecular target: HIV-1 Env of pseudovirus MGRM-D-018 (HIV-1)

1443_C16 (PG16) (TCN-116) (antibody), sequence (VH): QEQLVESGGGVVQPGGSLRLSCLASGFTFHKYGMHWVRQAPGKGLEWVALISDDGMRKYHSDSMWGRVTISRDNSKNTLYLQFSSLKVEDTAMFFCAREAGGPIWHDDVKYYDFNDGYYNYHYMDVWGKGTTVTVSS
1443_C16 (PG16) (TCN-116) (antibody), sequence (VL): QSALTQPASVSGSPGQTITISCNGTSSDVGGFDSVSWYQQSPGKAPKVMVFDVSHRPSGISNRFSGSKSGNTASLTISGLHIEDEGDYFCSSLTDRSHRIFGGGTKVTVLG

Substance | IC50 [1] [µg/mL] | IC50 (µg/ml), pseudovirus neutralization [2] [µg/mL] | IC50 (µg/ml), pseudovirus neutralization [3] [µg/mL] | IC50 (µg/ml), pseudovirus neutralization [4] [µg/mL] | IC50 (µg/ml), pseudovirus neutralization [5] [µg/mL] | IC50 (µg/ml), pseudovirus neutralization [6] [µg/mL] | neutralization IC50 [7] [µg/mL] | IC50 (µg/ml), pseudovirus neutralization [8] [µg/mL] | IC50, pseudovirus neutralization [9] [µg/mL] | IC50 (µg/ml), pseudovirus neutralization [10] [µg/mL] | neutralization IC50 [11] [µg/mL] | IC50 (µg/ml), pseudovirus neutralization [12] [µg/mL] | IC50 (µg/ml), pseudovirus neutralization [13] [µg/mL] | IC50 (µg/ml), pseudovirus neutralization [14] [µg/mL] | IC50 (µg/ml), pseudovirus neutralization [15] [µg/mL] | IC50 (µg/ml), pseudovirus neutralization [16] [µg/mL] | IC50, pseudovirus neutralization [17] [µg/mL] | IC50, pseudovirus neutralization [18] [µg/mL] | IC50 (µg/ml), pseudovirus neutralization [19] [µg/mL] | IC50 (µg/ml), pseudovirus neutralization [20] [µg/mL] | further results
4E10 (antibody) | 1.87 | 5.58 | 5.71 | 1.1 | 3.7 | 2.8 | 8.86 | 5.66 | 9.44 | 1.44 | 3.8 | 1.7 | 1.36 | 4.87 | 14.5 | 13.7 | 7.46 | 16.9 | 7.33 | > 50 | –
b12 (antibody) | > 50 | > 50 | > 50 | > 50 | 0.26 | > 50 | > 50 | > 50 | > 50 | > 50 | > 25 | > 50 | > 50 | > 50 | 9.46 | > 50 | > 50 | 17.6 | > 50 | > 50 | –
1495_C14 (PGC14) (antibody) | 46 | > 50 | > 50 | 23 | > 50 | > 50 | > 50 | > 50 | 29 | > 50 | > 50 | > 50 | > 50 | > 50 | 37 | > 50 | > 50 | > 50 | > 50 | 4 | –
2G12 (antibody) | 14.1 | > 50 | > 50 | 1.9 | 8.65 | 18.6 | > 50 | 2.93 | > 50 | > 50 | 23.9 | 31.9 | > 50 | > 50 | 22.5 | > 50 | > 50 | > 50 | 9.24 | 4.84 | –
2F5 (antibody) | 1.37 | > 50 | > 50 | 0.25 | 2.41 | > 50 | 11.8 | > 50 | 24.6 | 1.16 | 2.8 | > 50 | > 50 | 4.16 | 10.4 | 9.65 | 8.61 | 8.45 | 3.81 | > 50 | –
VRC01 (antibody) | – | – | – | – | – | – | – | – | – | – | – | – | – | – | – | – | – | – | – | – | IC50, pseudovirus neutralization [21]: 0.037 µg/mL; IC50, pseudovirus neutralization [22]: 0.055 µg/mL; IC50 [23]: 0.95 µg/mL; IC50, single-round pseudovirus neutralization [24]: 0.707 µg/mL; IC50 (µg/mL), pseudovirus neutralization [25]: 0.33 µg/mL; IC50, pseudovirus neutralization [26]: 0.29 µg/mL; IC50, pseudovirus neutralization [27]: > 50 µg/mL
1443_C16 (PG16) (TCN-116) (antibody) | > 50 | 0.04 | 0.25 | 0.29 | 0.01 | > 50 | > 50 | 16.8 | 0.01 | 0.04 | > 50 | > 50 | 0.002 | 0.11 | 0.002 | 6.98 | > 50 | > 50 | > 50 | > 50 | –
